Results taken from PMC5309844, “PDI regulates seizure activity via NMDA receptor redox in rats” (Scientific Reports, 2017).

What was measured:
[1] = biological target: T1, NMDA receptor NR1 subunit (rat (endogenous in hippocampus), UniProt P35439 19-938); experiment: co-IP; rat hippocampal tissue lysed in RIPA buffer; equal amounts of total protein precipitated with the appropriate primary antibodies and protein G sepharose at 4 °C overnight; Western blot; normal, chronic epileptic, and control siRNA- or PDI siRNA-infused epileptic animals; settings: partners not purified
T1 construct: NR1 subunit of the N-methyl-D-aspartate receptor, rat, endogenous in the hippocampus; source: endogenous, rat hippocampal tissue lysate (RIPA buffer)

[2] = biological target: T2, NMDA receptor NR2A subunit (rat (endogenous in hippocampus), UniProt Q00959 23-1464); experiment: as above; settings: partners not purified
T2 construct: NR2A subunit of the N-methyl-D-aspartate receptor, rat, endogenous in the hippocampus; source: endogenous, rat hippocampal tissue lysate (RIPA buffer)
T2 sequence (Q00959 23-1464): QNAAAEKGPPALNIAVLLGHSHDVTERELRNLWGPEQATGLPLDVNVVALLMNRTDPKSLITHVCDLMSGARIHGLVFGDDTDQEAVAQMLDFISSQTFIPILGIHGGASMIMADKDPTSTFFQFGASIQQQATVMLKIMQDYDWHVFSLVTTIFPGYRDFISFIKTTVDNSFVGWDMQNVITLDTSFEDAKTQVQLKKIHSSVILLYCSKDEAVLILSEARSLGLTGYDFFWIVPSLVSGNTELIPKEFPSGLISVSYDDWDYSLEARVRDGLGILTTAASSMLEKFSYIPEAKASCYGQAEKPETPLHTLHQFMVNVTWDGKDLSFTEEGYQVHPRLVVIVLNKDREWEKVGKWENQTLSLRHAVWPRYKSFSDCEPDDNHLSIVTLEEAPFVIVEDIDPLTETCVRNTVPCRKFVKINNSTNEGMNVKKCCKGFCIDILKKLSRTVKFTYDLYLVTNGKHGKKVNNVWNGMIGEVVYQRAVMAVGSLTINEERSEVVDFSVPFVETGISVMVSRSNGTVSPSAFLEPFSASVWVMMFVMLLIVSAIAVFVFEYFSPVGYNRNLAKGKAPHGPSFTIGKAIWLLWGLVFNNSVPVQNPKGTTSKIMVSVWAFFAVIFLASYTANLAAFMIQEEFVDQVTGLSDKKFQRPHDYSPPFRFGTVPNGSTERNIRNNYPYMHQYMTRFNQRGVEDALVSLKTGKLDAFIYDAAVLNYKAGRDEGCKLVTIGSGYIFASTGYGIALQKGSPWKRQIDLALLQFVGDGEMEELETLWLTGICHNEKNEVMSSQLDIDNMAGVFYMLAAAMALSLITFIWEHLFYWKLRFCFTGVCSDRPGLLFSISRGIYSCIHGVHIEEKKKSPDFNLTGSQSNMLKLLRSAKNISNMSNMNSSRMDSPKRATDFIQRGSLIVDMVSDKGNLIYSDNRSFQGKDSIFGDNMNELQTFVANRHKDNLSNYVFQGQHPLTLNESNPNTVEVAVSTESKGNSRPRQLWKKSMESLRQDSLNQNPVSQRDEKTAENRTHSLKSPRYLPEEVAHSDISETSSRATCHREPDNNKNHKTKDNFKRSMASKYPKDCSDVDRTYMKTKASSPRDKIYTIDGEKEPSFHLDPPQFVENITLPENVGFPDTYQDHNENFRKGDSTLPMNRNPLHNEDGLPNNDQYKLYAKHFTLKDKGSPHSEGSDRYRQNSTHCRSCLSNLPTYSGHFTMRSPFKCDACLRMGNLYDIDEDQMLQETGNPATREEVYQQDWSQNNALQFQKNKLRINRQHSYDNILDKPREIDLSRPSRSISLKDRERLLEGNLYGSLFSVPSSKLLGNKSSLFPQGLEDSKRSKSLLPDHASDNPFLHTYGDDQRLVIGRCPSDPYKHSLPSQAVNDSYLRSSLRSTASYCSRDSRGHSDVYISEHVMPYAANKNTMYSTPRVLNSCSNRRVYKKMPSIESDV

B1: Protein disulfide isomerase (enzyme, rat (endogenous in hippocampus), UniProt P04785 20-509, looked up)
chain: DALEEEDNVLVLKKSNFAEALAAHNYLLVEFYAPWCGHCKALAPEYAKAAAKLKAEGSEIRLAKVDATEESDLAQQYGVRGYPTIKFFKNGDTASPKEYTAGREADDIVNWLKKRTGPAATTLSDTAAAESLVDSSEVTVIGFFKDAGSDSAKQFLLAAEAVDDIPFGITSNSDVFSKYQLDKDGVVLFKKFDEGRNNFEGEITKEKLLDFIKHNQLPLVIEFTEQTAPKIFGGEIKTHILLFLPKSVSDYDGKLSNFKKAAEGFKGKILFIFIDSDHTDNQRILEFFGLKKEECPAVRLITLEEEMTKYKPESDELTAEKITQFCHHFLEGKIKPHLMSQELPEDWDKQPVKVLVGKNFEEVAFDEKKNVFVEFYAPWCGHCKQLAPIWDKLGETYKDHENIVIAKMDSTANEVEAVKVHSFPTLKFFPASADRTVIDYNGERTLDGFKKFLESGGQDGAGDNDDLDLEEALEPDMEEDDDQKAVKDEL
notes: Protein disulfide isomerase (PDI), rat, endogenous in the hippocampus of Sprague-Dawley rats; also called PDI; source: endogenous, rat hippocampal tissue lysate (RIPA buffer)
fold of co-precipitation in epileptic against normal animals [1]: ~2.4 fold
fold of co-precipitation in epileptic against normal animals [2]: ~2.4 fold
